Experiment [1] concerns the target T1, (His)6-KcsA, K+ channel from Streptomyces lividans (Streptomyces lividans), P0A334.
T1 chain: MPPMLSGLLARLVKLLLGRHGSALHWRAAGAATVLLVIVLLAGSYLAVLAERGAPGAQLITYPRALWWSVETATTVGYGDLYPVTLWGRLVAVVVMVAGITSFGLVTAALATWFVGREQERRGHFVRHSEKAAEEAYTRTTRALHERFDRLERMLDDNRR
Briefly: SDS-PAGE with Western blot. To be noted: remark: other sources report otherwise.

Experiment [2] addresses T1, (His)6-KcsA, K+ channel from …. The experiment can be described thus: SEC. Particulars: remark: other sources report otherwise.

Broadly, the stoichiometry N is a count of units in the complex or per binding partner.

B1: (His)6-KcsA, K+ channel from Streptomyces lividans, P0A334 1-160 (natural protein)
chain: MPPMLSGLLARLVKLLLGRHGSALHWRAAGAATVLLVIVLLAGSYLAVLAERGAPGAQLITYPRALWWSVETATTVGYGDLYPVTLWGRLVAVVVMVAGITSFGLVTAALATWFVGREQERRGHFVRHSEKAAEEAYTRTTRALHERFDRLERMLDDNRR
Regarding B1, the stoichiometry N in experiment [1] and in experiment [2] was 4 each time.

For the origin of these results see publication PMC5662131.
